In the supplement of paper PMC5998384:

Experiments:
[1] = system: HeLa Kyoto; assay: solubility in G1/S (NP-40 vs SDS abundance) (log2 ratio); higher = more soluble; settings: cell cycle stage: G1/S
[2] = system: HeLa Kyoto; assay: melting temperature (median over replicates), in situ; higher = more thermally stable
[3] = system: HeLa Kyoto; assay: solubility change mitosis vs G1/S (difference of NP-40 vs SDS log2 ratios) (log2 ratio difference); higher = more soluble in mitosis
[4] = system: HeLa Kyoto; assay: thermal stability score vs G1/S (z-score of summed log2 fold changes over temperatures); higher = more thermally stable than in G1/S
[5] = cell cycle stage: early G1 (4.5 h after nocodazole release)
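Wherever melting temperature (median over replicates), in situ is given: HeLa Kyoto cells synchronized by double thymidine or nocodazole block, proteins quantified by TMT10plex mass spectrometry, three independent biological replicates.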
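Wherever solubility change mitosis vs G1/S (difference of NP-40 vs SDS log2 ratios) is given: synchronized HeLa Kyoto cells (double thymidine block for G1/S, nocodazole release for mitosis), protein amounts in NP-40 versus SDS lysates quantified by mass spectrometry, three biological replicates.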
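Wherever solubility in G1/S (NP-40 vs SDS abundance) is given: HeLa Kyoto cells arrested at G1/S by double thymidine block, proteins quantified by TMT10plex mass spectrometry in mild NP-40 versus SDS extracts, three biological replicates.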
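Wherever thermal stability score vs G1/S (z-score of summed log2 fold changes over temperatures) is given: synchronized HeLa Kyoto cells, proteins quantified by TMT10plex mass spectrometry, three biological replicates, mitosis taken 0.5 h after nocodazole release, G1/S directly after double thymidine block.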

Sequence of ZNF787 (chain, as listed by the source): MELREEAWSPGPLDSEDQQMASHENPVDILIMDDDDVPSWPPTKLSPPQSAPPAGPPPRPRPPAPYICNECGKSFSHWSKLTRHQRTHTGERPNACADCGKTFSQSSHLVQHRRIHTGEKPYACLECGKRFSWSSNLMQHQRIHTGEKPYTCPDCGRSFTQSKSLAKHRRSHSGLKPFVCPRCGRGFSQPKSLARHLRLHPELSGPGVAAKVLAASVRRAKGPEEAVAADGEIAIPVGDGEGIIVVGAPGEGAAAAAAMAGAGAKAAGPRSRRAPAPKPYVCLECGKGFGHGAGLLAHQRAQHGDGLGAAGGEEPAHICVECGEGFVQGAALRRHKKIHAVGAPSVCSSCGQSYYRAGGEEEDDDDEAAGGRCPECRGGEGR

Row | Substance | solubility in G1/S (log2) [1] | melting temperature ([2]; cell cycle stage: G1/S) | melting temperature ([2]; cell cycle stage: mitosis) | solubility change mitosis (log2) [3] | thermal stability score [4, 5] | thermal stability score ([4]; cell cycle stage: mitosis)
1 | MAARSWQDELAQQAEEGSARLREMLSVGLGFLRTELGLDLGLEPKRYPGWVILVGTGALGLLLLFLLGYGWAAACAGARKKRRSPPRKREEAAAVPAAAPDDLALLKNLRSEEQKKKNRKKLSEKPKPNGRTVEVAEGEAVRTPQSVTAKQPPEIDKKNEKSKKNKKKSKSDAKAVQNSSRHDGKEVDEGAWETKISHREKRQQRKRDKVLTDSGSLDSTIPGIENTITVTTEQLTTASFPVGSKKNKGDSHLNVQVSNFKSGKGDSTLQVSSGLNENLTVNGGGWNEKSVKLSSQISAGEEKWNSVSPASAGKRKTEPSAWSQDTGDANTNGKDWGRSWSDRSIFSGIGSTAEPVSQSTTSDYQWDVSRNQPYIDDEWSGLNGLSSADPNSDWNAPAEEWGNWVDEERASLLKSQEPIPDDQKVSDDDKEKGEGALPTGKSKKKKKKKKKQGEDNSTAQDTEELEKEIREDLPVNTSKTRPKQEKAFSLKTISTSDPAEVLVKNSQPIKTLPPATSTEPSVILSKSDSDKSSSQVPPILQETDKSKSNTKQNSVPPSQTKSETSWESPKQIKKKKKARRET [MTDH] | -0.39 | 59.1 °C | 58.3 °C | 0.414 | -2.14 | -6.31
2 | MLTTLKPFGSVSVESKMNNKAGSFFWNLRQFSTLVSTSRTMRLCCLGLCKPKIVHSNWNILNNFHNRMQSTDIIRYLFQDAFIFKSDVGFQTKGISTLTALRIERLLYAKRLFFDSKQSLVPVDKSDDELKKVNLNHEVSNEDVLTKETKPNRISSRKLSEECNSLSDVLDAFSKAPTFPSSNYFTAMWTIAKRLSDDQKRFEKRLMFSHPAFNQLCEHMMREAKIMQYKYLLFSLHAIVKLGIPQNTILVQTLLRVTQERINECDEICLSVLSTVLEAMEPCKNVHVLRTGFRILVDQQVWKIEDVFTLQVVMKCIGKDAPIALKRKLEMKALRELDRFSVLNSQHMFEVLAAMNHRSLILLDECSKVVLDNIHGCPLRIMINILQSCKDLQYHNLDLFKGLADYVAATFDIWKFRKVLFILILFENLGFRPVGLMDLFMKRIVEDPESLNMKNILSILHTYSSLNHVYKCQNKEQFVEVMASALTGYLHTISSENLLDAVYSFCLMNYFPLAPFNQLLQKDIISELLTSDDMKNAYKLHTLDTCLKLDDTVYLRDIALSLPQLPRELPSSHTNAKVAEVLSSLLGGEGHFSKDVHLPHNYHIDFEIRMDTNRNQVLPLSDVDTTSATDIQRVAVLCVSRSAYCLGSSHPRGFLAMKMRHLNAMGFHVILVNNWEMDKLEMEDAVTFLKTKIYSVEALPVAAVNVQSTQ [FASTKD2] | -0.17 | 51.8 °C | 51.1 °C | -0.134 | 0.322 | 0.825
3 | ZNF787 | -0.0171 | 51.9 °C | 54.5 °C | 0.398 | -0.71 | -1.22
4 | MCGRTSCHLPRDVLTRACAYQDRRGQQRLPEWRDPDKYCPSYNKSPQSNSPVLLSRLHFEKDADSSERIIAPMRWGLVPSWFKESDPSKLQFNTTNCRSDTVMEKRSFKVPLGKGRRCVVLADGFYEWQRCQGTNQRQPYFIYFPQIKTEKSGSIGAADSPENWEKVWDNWRLLTMAGIFDCWEPPEGGDVLYSYTIITVDSCKGLSDIHHRMPAILDGEEAVSKWLDFGEVSTQEALKLIHPTENITFHAVSSVVNNSRNNTPECLAPVDLVVKKELRASGSSQRMLQWLATKSPKKEDSKTPQKEESDVPQWSSQFLQKSPLPTKRGTAGLLEQWLKREKEEEPVAKRPYSQ [HMCES] | 0.0685 | 48.6 °C | 48.4 °C | -0.0383 | 1.11 | 1.51
5 | NOTCH2 | -0.0358 | 50.1 °C | 51 °C | -0.171 | -1.09 | -2.98
6 | MGPRSRERRAGAVQNTNDSSALSKRSLAARGYVQDPFAALLVPGAARRAPLIHRGYYVRARAVRHCVRAFLEQIGAPQAALRAQILSLGAGFDSLYFRLKTAGRLARAAVWEVDFPDVARRKAERIGETPELCALTGPFERGEPASALCFESADYCILGLDLRQLQRVEEALGAAGLDAASPTLLLAEAVLTYLEPESAAALIAWAAQRFPNALFVVYEQMRPQDAFGQFMLQHFRQLNSPLHGLERFPDVEAQRRRFLQAGWTACGAVDMNEFYHCFLPAEERRRVENIEPFDEFEEWHLKCAHYFILAASRGDTLSHTLVFPSSEAFPRVNPASPSGVFPASVVSSEGQVPNLKRYGHASVFLSPDVILSAGGFGEQEGRHCRVSQFHLLSRDCDSEWKGSQIGSCGTGVQWDGRLYHTMTRLSESRVLVLGGRLSPVSPALGVLQLHFFKSEDNNTEDLKVTITKAGRKDDSTLCCWRHSTTEVSCQNQEYLFVYGGRSVVEPVLSDWHFLHVGTMAWVRIPVEGEVPEARHSHSACTWQGGALIAGGLGASEEPLNSVLFLRPISCGFLWESVDIQPPITPRYSHTAHVLNGKLLLVGGIWIHSSSFPGVTVINLTTGLSSEYQIDTTYVPWPLMLHNHTSILLPEEQQLLLLGGGGNCFSFGTYFNPHTVTLDLSSLSAGQ [LCMT2] | -0.0889 | 51.2 °C | 50.7 °C | -0.199 | -0.211 | -0.346
7 | MASIMEGPLSKWTNVMKGWQYRWFVLDYNAGLLSYYTSKDKMMRGSRRGCVRLRGAVIGIDDEDDSTFTITVDQKTFHFQARDADEREKWIHALEETILRHTLQLQGLDSGFVPSVQDFDKKLTEADAYLQILIEQLKLFDDKLQNCKEDEQRKKIETLKETTNSMVESIKHCIVLLQIAKDQSNAEKHADGMISTINPVDAIYQPSPLEPVISTMPSQTVLPPEPVQLCKSEQRPSSLPVGPVLATLGHHQTPTPNSTGSGHSPPSSSLTSPSHVNLSPNTVPEFSYSSSEDEFYDADEFHQSGSSPKRLIDSSGSASVLTHSSSGNSLKRPDTTESLNSSLSNGTSDADLFDSHDDRDDDAEAGSVEEHKSVIMHLLSQVRLGMDLTKVVLPTFILERRSLLEMYADFFAHPDLFVSISDQKDPKDRMVQVVKWYLSAFHAGRKGSVAKKPYNPILGEIFQCHWTLPNDTEENTELVSEGPVPWVSKNSVTFVAEQVSHHPPISAFYAECFNKKIQFNAHIWTKSKFLGMSIGVHNIGQGCVSCLDYDEHYILTFPNGYGRSILTVPWVELGGECNINCSKTGYSANIIFHTKPFYGGKKHRITAEIFSPNDKKSFCSIEGEWNGVMYAKYATGENTVFVDTKKLPIIKKKVRKLEDQNEYESRSLWKDVTFNLKIRDIDAATEAKHRLEERQRAEARERKEKEIQWETRLFHEDGECWVYDEPLLKRLGAAKH [OSBPL9] | -0.0574 | 48.7 °C | 49.2 °C | -0.142 | 0.00752 | 0.954
8 | CELSR2 | 0.141 | 56.8 °C | 54.6 °C | -0.142 | -4.5 | -5.14
9 | MASVSALTEELDSITSELHAVEIQIQELTERQQELIQKKKVLTKKIKQCLEDSDAGASNEYDSSPAAWNKEDFPWSGKVKDILQNVFKLEKFRPLQLETINVTMAGKEVFLVMPTGGGKSLCYQLPALCSDGFTLVICPLISLMEDQLMVLKQLGISATMLNASSSKEHVKWVHAEMVNKNSELKLIYVTPEKIAKSKMFMSRLEKAYEARRFTRIAVDEVHCCSQWGHDFRPDYKALGILKRQFPNASLIGLTATATNHVLTDAQKILCIEKCFTFTASFNRPNLYYEVRQKPSNTEDFIEDIVKLINGRYKGQSGIIYCFSQKDSEQVTVSLQNLGIHAGAYHANLEPEDKTTVHRKWSANEIQVVVATVAFGMGIDKPDVRFVIHHSMSKSMENYYQESGRAGRDDMKADCILYYGFGDIFRISSMVVMENVGQQKLYEMVSYCQNISKCRRVLMAQHFDEVWNSEACNKMCDNCCKDSAFERKNITEYCRDLIKILKQAEELNEKLTPLKLIDSWMGKGAAKLRVAGVVAPTLPREDLEKIIAHFLIQQYLKEDYSFTAYATISYLKIGPKANLLNNEAHAITMQVTKSTQNSFRAESSQTCHSEQGDKKMEEKNSGNFQKKAANMLQQSGSKNTGAKKRKIDDA [RECQL] | 0.0561 | 54 °C | 53.4 °C | -0.174 | -1.7 | -4.39
10 | MCGIFAYLNYHVPRTRREILETLIKGLQRLEYRGYDSAGVGFDGGNDKDWEANACKIQLIKKKGKVKALDEEVHKQQDMDLDIEFDVHLGIAHTRWATHGEPSPVNSHPQRSDKNNEFIVIHNGIITNYKDLKKFLESKGYDFESETDTETIAKLVKYMYDNRESQDTSFTTLVERVIQQLEGAFALVFKSVHFPGQAVGTRRGSPLLIGVRSEHKLSTDHIPILYRTARTQIGSKFTRWGSQGERGKDKKGSCNLSRVDSTTCLFPVEEKAVEYYFASDASAVIEHTNRVIFLEDDDVAAVVDGRLSIHRIKRTAGDHPGRAVQTLQMELQQIMKGNFSSFMQKEIFEQPESVVNTMRGRVNFDDYTVNLGGLKDHIKEIQRCRRLILIACGTSYHAGVATRQVLEELTELPVMVELASDFLDRNTPVFRDDVCFFLSQSGETADTLMGLRYCKERGALTVGITNTVGSSISRETDCGVHINAGPEIGVASTKAYTSQFVSLVMFALMMCDDRISMQERRKEIMLGLKRLPDLIKEVLSMDDEIQKLATELYHQKSVLIMGRGYHYATCLEGALKIKEITYMHSEGILAGELKHGPLALVDKLMPVIMIIMRDHTYAKCQNALQQVVARQGRPVVICDKEDTETIKNTKRTIKVPHSVDCLQGILSVIPLQLLAFHLAVLRGYDVDFPRNLAKSVTVE [GFPT1] | -0.169 | 56.1 °C | 56.2 °C | -0.226 | -0.54 | 0.683
11 | MSATAAARKRGKPASGAGAGAGAGKRRRKADSAGDRGKSKGGGKMNEEISSDSESESLAPRKPEEEEEEELEETAQEKKLRLAKLYLEQLRQQEEEKAEARAFEEDQVAGRLKEDVLEQRGRLQKLVAKEIQAPASADIRVLRGHQLSITCLVVTPDDSAIFSAAKDCSIIKWSVESGRKLHVIPRAKKGAEGKPPGHSSHVLCMAISSDGKYLASGDRSKLILIWEAQSCQHLYTFTGHRDAVSGLAFRRGTHQLYSTSHDRSVKVWNVAENSYVETLFGHQDAVAALDALSRECCVTAGGRDGTVRVWKIPEESQLVFYGHQGSIDCIHLINEEHMVSGADDGSVALWGLSKKRPLALQREAHGLRGEPGLEQPFWISSVAALLNTDLVATGSHSSCVRLWQCGEGFRQLDLLCDIPLVGFINSLKFSSSGDFLVAGVGQEHRLGRWWRIKEARNSVCIIPLRRVPVPPAAGS [RRP9] | -1.11 | 59.7 °C | 56.5 °C | 0.596 | -3.65 | -9.84
12 | MSSEDREAQEDELLALASIYDGDEFRKAESVQGGETRIYLDLPQNFKIFVSGNSNECLQNSGFEYTICFLPPLVLNFELPPDYPSSSPPSFTLSGKWLSPTQLSALCKHLDNLWEEHRGSVVLFAWMQFLKEETLAYLNIVSPFELKIGSQKKVQRRTAQASPNTELDFGGAAGSDVDQEEIVDERAVQDVESLSNLIQEILDFDQAQQIKCFNSKLFLCSICFCEKLGSECMYFLECRHVYCKACLKDYFEIQIRDGQVQCLNCPEPKCPSVATPGQVKELVEAELFARYDRLLLQSSLDLMADVVYCPRPCCQLPVMQEPGCTMGICSSCNFAFCTLCRLTYHGVSPCKVTAEKLMDLRNEYLQADEANKRLLDQRYGKRVIQKALEEMESKEWLEKNSKSCPCCGTPIEKLDGCNKMTCTGCMQYFCWICMGSLSRANPYKHFNDPGSPCFNRLFYAVDVDDDIWEDEVED [RNF14] | 0.119 | 49.6 °C | 49.1 °C | -0.286 | 0.508 | 1.14
